± gives the standard deviation of the averaged measurements.
What follows are sequences tested on ATP (assay: switch fluorescence ratio, 500 uM ATP over buffer (Cy3 cluster intensity, sum of 5 cycles each) (fold (ratio)); higher = stronger signal-on switching upon ATP binding; sequences stand for … in TCGTCGGCAGCGTCAGATGTGTATAAGAGACAGTTTTTTTTTTTTTTTTTTTTTTTTT…TC). Details: aptamer strand: ATP DNA aptamer (quencher-CACCTGGGGGAGTATTGCGGAGGAAGG + anchor), 100 nM annealed; ATP concentration: 500 uM.
How it was run: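 Switching-strand clusters labelled with Cy3 on a modified Illumina MiSeq flow-cell were annealed to 100 nM quencher-labelled ATP aptamer, imaged in selection buffer, and re-imaged after 15 min with 500 uM ATP at 22 °C. This was done over five cycles with NaOH stripping and re-annealing in between. The fluorescence ratio is summed target-cycle over summed buffer-cycle Cy3 intensity per cluster, averaged per switch-domain sequence, excluding clusters outside 100-1000 RFU.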
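Further: ATP exposure 15 min at 22 °C before imaging.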

CCGGGGCTGG was tested. Which switch fluorescence ratio did it give?
Its switch fluorescence ratio is 1.04 ± 0.037.

Which switch fluorescence ratio does the source give for CCGGGGCTTT here?
Its switch fluorescence ratio is 1.17 ± 0.021.

With CCGGGGGAAC as the sequence, how does the switch fluorescence ratio read?
The switch fluorescence ratio was 1.14 ± 0.09.

Which switch fluorescence ratio does the source give for CCGGGGGACA here?
Its switch fluorescence ratio is 1.1 ± 0.17.

Which switch fluorescence ratio does the source give for CCGGGGGATC here?
Its switch fluorescence ratio is 1.1 ± 0.017.

CCGGGGGCTA was tested. Which switch fluorescence ratio did it give?
The switch fluorescence ratio was 2.69 ± 1.9.

Which switch fluorescence ratio does the source give for CCGGGGGGAG here?
The switch fluorescence ratio was 1.02 ± 0.045.

Which switch fluorescence ratio does the source give for CCGGGGGGCC here?
The switch fluorescence ratio was 1.08 ± 0.038.

For CCGGGGTCGT, which switch fluorescence ratio is on record?
Its switch fluorescence ratio is 1.02 ± 0.012.

Which switch fluorescence ratio does the source give for CCGGGGTCTG here?
Its switch fluorescence ratio is 0.995 ± 0.035.

With CCGGGTCTTT as the sequence, how does the switch fluorescence ratio read?
The switch fluorescence ratio was 1.002 ± 0.0064.

Which switch fluorescence ratio does the source give for CCGGGTTTTT here?
The switch fluorescence ratio was 1.12 ± 0.13.

With CCGGTCAGTG as the sequence, how does the switch fluorescence ratio read?
Its switch fluorescence ratio is 1.066 ± 0.0088.

CCGGTTGCTG was tested. Which switch fluorescence ratio did it give?
The switch fluorescence ratio was 1.12 ± 0.066.

Which switch fluorescence ratio does the source give for CCGTAAAACT here?
The switch fluorescence ratio was 2.46 ± 1.2.

For CCGTATATAT, which switch fluorescence ratio is on record?
Its switch fluorescence ratio is 2.55 ± 0.096.

For CCGTCAACTA, which switch fluorescence ratio is on record?
Its switch fluorescence ratio is 1.96 ± 0.22.

How did the switch fluorescence ratio turn out when CCGTCATCTT was run?
The switch fluorescence ratio was 1.024 ± 0.0072.

CCGTCGGGGT was tested. Which switch fluorescence ratio did it give?
Its switch fluorescence ratio is 1.09 ± 0.025.

Which switch fluorescence ratio does the source give for CCGTGGCGTG here?
Its switch fluorescence ratio is 1.01 ± 0.033.

For CCGTGGCTGT, which switch fluorescence ratio is on record?
Its switch fluorescence ratio is 1.31 ± 0.068.

Which switch fluorescence ratio does the source give for CCGTGGGATG here?
Its switch fluorescence ratio is 0.986 ± 0.031.

How did the switch fluorescence ratio turn out when CCGTGGGGGT was run?
The switch fluorescence ratio was 1.054 ± 0.0029.

With CCGTGTACGG as the sequence, how does the switch fluorescence ratio read?
The switch fluorescence ratio was 0.999 ± 0.054.

CCGTGTAGGG was tested. Which switch fluorescence ratio did it give?
Its switch fluorescence ratio is 1.01 ± 0.034.

With CCGTTACCTG as the sequence, how does the switch fluorescence ratio read?
Its switch fluorescence ratio is 0.974 ± 0.015.

How did the switch fluorescence ratio turn out when CCGTTAGCTT was run?
The switch fluorescence ratio was 2.2 ± 0.079.

Which switch fluorescence ratio does the source give for CCGTTGAGCG here?
The switch fluorescence ratio was 1.03 ± 0.03.

For CCGTTGGGGT, which switch fluorescence ratio is on record?
Its switch fluorescence ratio is 1.11 ± 0.13.

CCGTTGTAAG was tested. Which switch fluorescence ratio did it give?
Its switch fluorescence ratio is 1.0184 ± 0.001.

Which switch fluorescence ratio does the source give for CCGTTTGGTC here?
Its switch fluorescence ratio is 1.02 ± 0.019.

CCGTTTGTGC was tested. Which switch fluorescence ratio did it give?
Its switch fluorescence ratio is 1.21 ± 0.063.

How did the switch fluorescence ratio turn out when CCGTTTTGCG was run?
The switch fluorescence ratio was 1.02 ± 0.027.

With CCTAAATTAT as the sequence, how does the switch fluorescence ratio read?
Its switch fluorescence ratio is 1.02 ± 0.035.

For CCTAAATTTT, which switch fluorescence ratio is on record?
The switch fluorescence ratio was 1.01 ± 0.024.

How did the switch fluorescence ratio turn out when CCTAACAGTT was run?
Its switch fluorescence ratio is 1.02 ± 0.0039.

How did the switch fluorescence ratio turn out when CCTAACTAAA was run?
The switch fluorescence ratio was 0.995 ± 0.028.

Which switch fluorescence ratio does the source give for CCTAACTTAG here?
The switch fluorescence ratio was 1.021 ± 0.0029.

Which switch fluorescence ratio does the source give for CCTAAGTGGG here?
Its switch fluorescence ratio is 1.02 ± 0.034.

CCTAATAGGG was tested. Which switch fluorescence ratio did it give?
Its switch fluorescence ratio is 0.9929 ± 0.0033.

Which switch fluorescence ratio does the source give for CCTAATTTGG here?
Its switch fluorescence ratio is 0.974 ± 0.031.

Which switch fluorescence ratio does the source give for CCTACACTGG here?
The switch fluorescence ratio was 1.13 ± 0.048.

How did the switch fluorescence ratio turn out when CCTACGTTT was run?
Its switch fluorescence ratio is 1.06 ± 0.063.

How did the switch fluorescence ratio turn out when CCTAGAGGGT was run?
Its switch fluorescence ratio is 1.07 ± 0.024.

For CCTAGCATGG, which switch fluorescence ratio is on record?
Its switch fluorescence ratio is 2.05 ± 0.21.

For CCTAGCGGTG, which switch fluorescence ratio is on record?
The switch fluorescence ratio was 1.12 ± 0.03.

Which switch fluorescence ratio does the source give for CCTAGCTG here?
The switch fluorescence ratio was 1.02 ± 0.056.

How did the switch fluorescence ratio turn out when CCTAGGAGCC was run?
Its switch fluorescence ratio is 1.05 ± 0.026.

For CCTAGGATTC, which switch fluorescence ratio is on record?
The switch fluorescence ratio was 1.01 ± 0.043.

CCTAGGGGTT was tested. Which switch fluorescence ratio did it give?
Its switch fluorescence ratio is 1.09 ± 0.064.

For CCTAGTACCG, which switch fluorescence ratio is on record?
The switch fluorescence ratio was 0.992 ± 0.069.

How did the switch fluorescence ratio turn out when CCTAGTGGGG was run?
The switch fluorescence ratio was 1.04 ± 0.06.

With CCTATGATTG as the sequence, how does the switch fluorescence ratio read?
Its switch fluorescence ratio is 0.981 ± 0.023.

For CCTATGGCGG, which switch fluorescence ratio is on record?
Its switch fluorescence ratio is 1.07 ± 0.017.

With CCTATTCTGA as the sequence, how does the switch fluorescence ratio read?
The switch fluorescence ratio was 0.97 ± 0.068.

CCTCCAGGTT was tested. Which switch fluorescence ratio did it give?
Its switch fluorescence ratio is 3.69 ± 3.2.

For CCTCGGTGCG, which switch fluorescence ratio is on record?
Its switch fluorescence ratio is 1.02 ± 0.0087.

For CCTCGTTTTT, which switch fluorescence ratio is on record?
The switch fluorescence ratio was 1.11 ± 0.053.

Which switch fluorescence ratio does the source give for CCTCTATTCA here?
The switch fluorescence ratio was 1.06 ± 0.019.

With CCTCTATTGG as the sequence, how does the switch fluorescence ratio read?
The switch fluorescence ratio was 1.045 ± 0.0041.

How did the switch fluorescence ratio turn out when CCTCTTAACT was run?
Its switch fluorescence ratio is 1.13 ± 0.037.

With CCTCTTCATA as the sequence, how does the switch fluorescence ratio read?
The switch fluorescence ratio was 2.54 ± 0.28.

CCTCTTTTTT was tested. Which switch fluorescence ratio did it give?
The switch fluorescence ratio was 1.1 ± 0.035.

How did the switch fluorescence ratio turn out when CCTGAATTTC was run?
Its switch fluorescence ratio is 1.12 ± 0.14.

For CCTGACTTTC, which switch fluorescence ratio is on record?
The switch fluorescence ratio was 1.11 ± 0.045.

CCTGACTTTG was tested. Which switch fluorescence ratio did it give?
The switch fluorescence ratio was 0.972 ± 0.043.

For CCTGAGGGCG, which switch fluorescence ratio is on record?
The switch fluorescence ratio was 1.037 ± 0.01.

CCTGAGTCGT was tested. Which switch fluorescence ratio did it give?
The switch fluorescence ratio was 1.09 ± 0.017.

For CCTGATGCGG, which switch fluorescence ratio is on record?
Its switch fluorescence ratio is 1.02 ± 0.059.

CCTGCAGAGC was tested. Which switch fluorescence ratio did it give?
Its switch fluorescence ratio is 1.28 ± 0.058.

Which switch fluorescence ratio does the source give for CCTGCATGTG here?
The switch fluorescence ratio was 1.26 ± 0.02.

For CCTGCCCTGT, which switch fluorescence ratio is on record?
The switch fluorescence ratio was 1.108 ± 0.0022.

With CCTGCCTCCT as the sequence, how does the switch fluorescence ratio read?
Its switch fluorescence ratio is 2.27 ± 0.041.

For CCTGCGTTTT, which switch fluorescence ratio is on record?
The switch fluorescence ratio was 1.75 ± 0.32.

With CCTGCTCATC as the sequence, how does the switch fluorescence ratio read?
Its switch fluorescence ratio is 1.99 ± 0.22.

With CCTGCTGGCG as the sequence, how does the switch fluorescence ratio read?
The switch fluorescence ratio was 1.04 ± 0.12.

How did the switch fluorescence ratio turn out when CCTGGATGTA was run?
The switch fluorescence ratio was 1.02 ± 0.025.

Which switch fluorescence ratio does the source give for CCTGGATTAG here?
The switch fluorescence ratio was 1.05 ± 0.041.

Which switch fluorescence ratio does the source give for CCTGGATTCA here?
Its switch fluorescence ratio is 0.9888 ± 0.002.

Which switch fluorescence ratio does the source give for CCTGGATTTA here?
The switch fluorescence ratio was 1.01 ± 0.011.

How did the switch fluorescence ratio turn out when CCTGGCTGAT was run?
Its switch fluorescence ratio is 1.11 ± 0.058.

Which switch fluorescence ratio does the source give for CCTGGCTTGA here?
The switch fluorescence ratio was 0.996 ± 0.016.

CCTGGGAGGA was tested. Which switch fluorescence ratio did it give?
Its switch fluorescence ratio is 1.012 ± 0.0014.

CCTGGGCGTC was tested. Which switch fluorescence ratio did it give?
The switch fluorescence ratio was 1.037 ± 0.004.

How did the switch fluorescence ratio turn out when CCTGGGGCGG was run?
The switch fluorescence ratio was 1.07 ± 0.019.

With CCTGGGGGAA as the sequence, how does the switch fluorescence ratio read?
Its switch fluorescence ratio is 1.025 ± 0.0073.

CCTGGGGGAG was tested. Which switch fluorescence ratio did it give?
Its switch fluorescence ratio is 1.05 ± 0.11.

CCTGGGGGGG was tested. Which switch fluorescence ratio did it give?
Its switch fluorescence ratio is 1.03 ± 0.05.

With CCTGGGGTCT as the sequence, how does the switch fluorescence ratio read?
The switch fluorescence ratio was 1.03 ± 0.015.

CCTGGGGTTG was tested. Which switch fluorescence ratio did it give?
Its switch fluorescence ratio is 1.05 ± 0.14.

How did the switch fluorescence ratio turn out when CCTGGGTCTG was run?
Its switch fluorescence ratio is 1.001 ± 0.006.

How did the switch fluorescence ratio turn out when CCTGGGTGTG was run?
The switch fluorescence ratio was 1.05 ± 0.11.

How did the switch fluorescence ratio turn out when CCTGTAAATG was run?
The switch fluorescence ratio was 1.15 ± 0.21.

For CCTGTCTTCT, which switch fluorescence ratio is on record?
The switch fluorescence ratio was 0.9869 ± 0.0061.

CCTGTGATTC was tested. Which switch fluorescence ratio did it give?
The switch fluorescence ratio was 1.23 ± 0.058.

With CCTGTGCCCG as the sequence, how does the switch fluorescence ratio read?
The switch fluorescence ratio was 1.01 ± 0.041.

How did the switch fluorescence ratio turn out when CCTGTTTATT was run?
The switch fluorescence ratio was 0.974 ± 0.012.

How did the switch fluorescence ratio turn out when CCTTAAGACA was run?
The switch fluorescence ratio was 1.06 ± 0.015.

For CCTTAGGTTT, which switch fluorescence ratio is on record?
The switch fluorescence ratio was 1.002 ± 0.0011.

How did the switch fluorescence ratio turn out when CCTTATAATT was run?
The switch fluorescence ratio was 1.02 ± 0.035.

From the supplement of paper PMC10126150
